Experimental data reported in publication PMC7885793 (Biochemistry, 2019).

Target: T1, PLCβ3-Δ892 (residues 10–892) (Homo sapiens, UniProt Q01970 10-892)
T1 sequence (looked up): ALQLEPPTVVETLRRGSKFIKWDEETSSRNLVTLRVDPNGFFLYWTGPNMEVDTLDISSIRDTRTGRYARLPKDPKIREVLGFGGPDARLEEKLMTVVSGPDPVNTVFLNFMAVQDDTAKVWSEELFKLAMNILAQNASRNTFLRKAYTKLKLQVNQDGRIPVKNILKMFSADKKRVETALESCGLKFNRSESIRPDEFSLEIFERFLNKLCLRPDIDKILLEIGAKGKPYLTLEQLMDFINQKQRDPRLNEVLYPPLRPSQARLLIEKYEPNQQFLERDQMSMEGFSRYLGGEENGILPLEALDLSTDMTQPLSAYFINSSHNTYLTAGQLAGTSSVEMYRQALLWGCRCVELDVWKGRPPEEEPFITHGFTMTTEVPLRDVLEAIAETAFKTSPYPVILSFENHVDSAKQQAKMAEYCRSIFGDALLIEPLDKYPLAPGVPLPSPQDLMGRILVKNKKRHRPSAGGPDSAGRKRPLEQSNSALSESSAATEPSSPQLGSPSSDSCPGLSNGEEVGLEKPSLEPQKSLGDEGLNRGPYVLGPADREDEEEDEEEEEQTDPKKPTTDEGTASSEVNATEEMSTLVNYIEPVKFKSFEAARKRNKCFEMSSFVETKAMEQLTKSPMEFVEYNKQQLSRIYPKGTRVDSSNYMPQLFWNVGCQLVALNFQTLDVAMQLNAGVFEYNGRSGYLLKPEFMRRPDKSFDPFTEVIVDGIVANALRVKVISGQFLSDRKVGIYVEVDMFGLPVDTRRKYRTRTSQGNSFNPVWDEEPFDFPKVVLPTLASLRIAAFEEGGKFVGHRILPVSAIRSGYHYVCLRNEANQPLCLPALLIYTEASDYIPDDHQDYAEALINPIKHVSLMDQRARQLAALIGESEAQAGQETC
Test: cell-based or functional assay

x-fold maximum activity over basal (complex against the PLCβ3 variant alone): 22 x-fold
B1: Activated Gαq (Gαq·GDP-ALF4^−) (natural protein, murine, UniProt P21279 7-359, looked up)
chain: MACCLSEEAKEARRINDEIERQLRRDKRDARRELKLLLLGTGESGKSTFIKQMRIIHGSGYSDEDKRGFTKLVYQNIFTAMQAMIRAMDTLKIPYKYEHNKAHAQLVREVDVEKVSAFENPYVDAIKSLWNDPGIQECYDRRREYQLSDSTKYYLNDLDRVADPSYLPTQQDVLRVRVPTTGIIEYPFDLQSVIFRMVDVGGQRSERRKWIHCFENVTSIMFLVALSEYDQVLVESDNENRMEESKALFRTIITYPWFQNSSVILFLNKKDLLEEKIMYSHLVDYFPEYDGPQRDAQAAREFILKMFVDLNPDSDKIIYSHFTCATDTENIRFVFAAVKDTILQLNLKEYNLV
